In PMC8573169, “Structural basis for the inhibition of the Bacillus subtilis c-di-AMP cyclase CdaA by the phosphoglucomutase GlmM” (The Journal of Biological Chemistry, 2021):

B4: full-length B. subtilis GlmM (phosphoglucosamine mutase), His-tagged (enzyme, UniProt O34824 1-448, looked up)
chain: MGKYFGTDGVRGVANSELTPELAFKVGRFGGYVLTKDKQRPKVLIGRDTRISGHMLEGALVAGLLSIGAEVMRLGVISTPGVSYLTKAMDAEAGVMISASHNPVQDNGIKFFGGDGFKLSDEQEAEIERLMDEPEDKLPRPVGADLGLVNDYFEGGQKYLQFLKQTADEDFTGIHVALDCANGATSSLATHLFADLDADVSTMGTSPNGLNINDGVGSTHPEALSAFVKEKNADLGLAFDGDGDRLIAVDEKGNIVDGDQIMYICSKHLKSEGRLKDDTVVSTVMSNLGFYKALEKEGIKSVQTAVGDRYVVEAMKKDGYNVGGEQSGHLIFLDYNTTGDGLLSAIMLMNTLKATGKPLSELAAEMQKFPQLLVNVRVTDKYKVEENEKVKAVISEVEKEMNGDGRILVRPSGTEPLVRVMAEAKTKELCDEYVNRIVEVVRSEMGLE
notes: GlmM of B. subtilis strain 168, full-length protein; also called glmM-his; phosphoglucomutase GlmM; source: E. coli BL21(DE3), purified (Ni-NTA, SEC); also in lysate, mixed with the partner's lysate before Ni-NTA and SEC; not shown: His6, C-terminal, kept

What was measured:
[1] = target: the molecule itself; test: crystal structure; purified CdaACD:GlmM_(F369) complex at 10 mg/ml, two conditions (complex 1, 3.6 A; complex 2, 4.2 A); three complexes in the asymmetric unit
[2] = target: B4; test: MST; fluorescently labelled (RED-NHS) CdaACD at 25 nM final, unlabelled GlmM 0.78 uM to 800 uM final; 10 mM HEPES pH 7.5, 150 mM NaCl, 0.05% Tween-20; Monolith NT.115, LED power 95%, MST power 80%; five runs; conditions: both partners purified
[3] = target: the molecule itself; test: crystal structure; tag-less CdaACD at 4 mg/ml; 0.1 M sodium cacodylate pH 6.5, 0.1 M ammonium sulfate, 0.3 M sodium formate, 6% PEG 8000, 3% gamma-PGA; dimer in the asymmetric unit; 2.8 A
[4] = target: the molecule itself; test: SEC-SAXS; purified proteins or purified complexes (CdaACD 5 mg/ml, GlmM 24 mg/ml, CdaACD:GlmM 24 mg/ml, CdaACD:GlmM_(F369) 10 mg/ml) on a Shodex KW403 column in 30 mM Tris pH 7.5, 150 mM NaCl, with continuous SAXS data collection; envelopes fitted with the crystal structures

B1: B. subtilis CdaA catalytic domain (CdaACD), His-tagged (domain or fragment, UniProt Q45589 97-273, looked up)
chain: FFSRSGTPVEEAQQKTIEAITKAINYMAKRRIGALLTIERDTGMGDYIETGIPLNAKVSSELLINIFIPNTPLHDGAVIMKNNEIAAAACYLPLSESPFISKELGTRHRAAVGISEVTDSLTIIVSEETGGVSVAKNGDLHRELTEEALKEMLEAEFKKNTRDTSSNRWYWRGKKNG
notes: C-terminal catalytic (DAC) domain of the c-di-AMP cyclase CdaA of B. subtilis strain 168, starting from amino acid Phe97; The His tag is thrombin cleavable; For MST the protein was labelled with an amine-reactive dye (Monolith Protein Labeling RED-NHS 2nd Generation kit); also called soluble catalytic domain of the c-di-AMP cyclase CdaA; his-cdaACD; source: E. coli BL21(DE3), purified (Ni-NTA, …)
- stoichiometry N [1]: 2
- Kd [2]: 14.4 ± 0.962 µM

B2: tag-less B. subtilis CdaACD (domain or fragment, UniProt Q45589 97-273, looked up)
chain: FFSRSGTPVEEAQQKTIEAITKAINYMAKRRIGALLTIERDTGMGDYIETGIPLNAKVSSELLINIFIPNTPLHDGAVIMKNNEIAAAACYLPLSESPFISKELGTRHRAAVGISEVTDSLTIIVSEETGGVSVAKNGDLHRELTEEALKEMLEAEFKKNTRDTSSNRWYWRGKKNG
notes: C-terminal catalytic (DAC) domain of the c-di-AMP cyclase CdaA of B. subtilis strain 168, starting from amino acid Phe97; also called tag less CdaACD; source: E. coli BL21(DE3), purified (Ni-NTA, SEC), His tag removed with thrombin, SEC; not shown: His6, N-terminal, cleaved
- stoichiometry N [3]: 2

B3: B. subtilis GlmM_(F369) variant lacking the C-terminal domain 4, His-tagged (domain or fragment, UniProt O34824 1-369, looked up)
chain: MGKYFGTDGVRGVANSELTPELAFKVGRFGGYVLTKDKQRPKVLIGRDTRISGHMLEGALVAGLLSIGAEVMRLGVISTPGVSYLTKAMDAEAGVMISASHNPVQDNGIKFFGGDGFKLSDEQEAEIERLMDEPEDKLPRPVGADLGLVNDYFEGGQKYLQFLKQTADEDFTGIHVALDCANGATSSLATHLFADLDADVSTMGTSPNGLNINDGVGSTHPEALSAFVKEKNADLGLAFDGDGDRLIAVDEKGNIVDGDQIMYICSKHLKSEGRLKDDTVVSTVMSNLGFYKALEKEGIKSVQTAVGDRYVVEAMKKDGYNVGGEQSGHLIFLDYNTTGDGLLSAIMLMNTLKATGKPLSELAAEMQKF
notes: GlmM of B. subtilis strain 168, residues Met1 to Phe369 (domains 1 to 3, lacking the flexible C-terminal domain 4); also called truncated GlmM; glmM_(F369)-his; source: E. coli BL21(DE3), purified (Ni-NTA, SEC); also in lysate, mixed with the partner's lysate before Ni-NTA and SEC; not shown: His6, C-terminal, kept
- stoichiometry N [1]: 2

Binder: B4
- stoichiometry N [4]: 2
